These results are taken from article PMC12092789.

This assay addresses RAD51 (UniProt Q06609). The assay is described as follows: co-immunoprecipitation, Western blot. To be noted: reference: wild-type NPM1, cisplatin; sites S260.

For the substance “nucleophosmin 1 (NPM1) (from UniProt P06748) NPM1 S260A, cisplatin”, the “binding against the reference” value was “stronger”.
